This series is described as follows: label from the status in PepcDB records.
In the case of “MSSEHIDEVSGISTTGHEWDGIRELNNPLPRWWVITFYITVAWAVAYTIAYPAWPMLSSATKGVLGYSSRNAVKIELAAAEAAKGKYVAAIQQKTVSEIAADDALREFAVAAGGATFKVNCVQCHGSGAQGSKGFPNLNDDDWLWGGTTEQIQQTIAHGIRFASDPDTRQSEMPPFGDIITPEQIAQVGAYVASLSGKVQDASLIEPGAKVFGENCVACHGDNAKGNKELGAPNLTDAIWLYAPGETAIAVQVRAPKHGVMPAWIGRLGETKVKELAVYVHSLGGGE”, the protein production entry was “failed”.

For the sequence “SSSSSSVPAYLGDEDLTQETRALISSLPKEKGWLVSEIYEFQGLWHTQAILQGILICQKRFEAKDSDIILVTNPKSGTTWLKALVFALLNRHKFPVSSSGNHPLLVTNPHLLVPFLEGVYYESPDFDFSSLPSPRLMNTHISHLSLPESVKSSSCKIVYCCRNPKDMFVSLWHFGKKLAPEETADYPIEKAVEAFCEGKFIGGPFWDHILEYWYASRENPNKVLFVTYEELKKQTEVEMKRIAEFLECGFIEEEEVREIVKLCSFESLSNLEVNKEGKLPNGIETKTFFRKGEIGGWRDTLSESLAEEIDRTIEEKFKGSGLKFSS”, the protein production result is on record as “not failed”.

Regarding “MTQVRETVSFKAGDVILYPGVPGPRDRAYRVLEGLVRLEAVDEEGNALTLRLVRPGGFFGEEALFGQERIYFAEAATDVRLEPLPENPDPELLKDLAQHLSQGLAEAYRRIERLATQRLKNRMAAALLELSETPLAHEEEGKVVLKATHDELAAAVGSVRETVTKVIGELAREGYIRSGYGKIQLLDLKGLKELAESRGQGR”, the protein production entry was “not failed”.

In the case of “MKFKTNKLSLNLVLASSLLAASIPAFAVTGDTDQPIHIESDQQSLDMQGNVVTFTGNVIVTQGTIKINADKVVVTRPGGEQGKEVIDGYGKPATFYQMQDNGKPVEGHASQMHYELAKDFVVLTGNAYLQQVDSNIKGDKITYLVKEQKMQAFSDKGKRVTTVLVPSQLQDKNNKGQTPAQKKGN”, the protein production entry is reported as “not failed”.

As to “MSKDLLFWLTILLVLISGYLSYRKKRIESLTTAGLAGGFALSFMLYEKFPVLFSFLLGFIATFAFEWTRKR”, the protein production entry is “failed”.

Regarding “MEMNRRRSRGFMIAKLMPFCKAVKSPTPSQDLYNNVHYTSSTTTSYARQPDFNNYVTATTPLPPKVSFLLQPSLAPEGKDMEKKLNMMAEKLIGRGINGVDDCVDARAASYISSVRERFKADQYCEKLTTVISLDDEN”, the protein production result is “failed”.

On to “MGSELYLMFFAAITLLAILNPFGNLTQFLAMSDGLPLMLRKKLFRTILYTAFTIVLVFLLSGPLFMNYIFRVSLDDLRVSGGLVLIIMAIKNLLFSTKIATKDFSSYQDMDDKEILRQSLIPMAFPMLVGPGTLASVIVIAEDGGLDVALGGVMIAFIFMFILFHFAATIEKIVGKLILHVFSRIAQVFIVAMGFKMIIVGLKDIFNL”, for which the protein production entry is “failed”.

“MTALLTRVWACTLCQAELPFPPKPILQASSQARILIAGQAPGVKTHHKGIPFDDASGERLRAWLNVSREQFYDPALFAIVPMGFCFPGNIERKGKKQGDKPPRPECAATWHKALLALMPNIELVIVLGQYAMDYHLSRLLMDNMHKNRGFNSTPLAAAHTIGKATSNKKITLTQAVEQWPLYWPQLMVMPHPSPRNNLWLKQHPEFEQHLIPTLRSRISSLLT”: the protein production result is on record as “failed”.

“PAKWKRGRPDILHVALLTTTDSPLYNEGLLRIYFQVYDGRLFEVGTGVRVPKNYERFRGLVAQLLKTERVPPGEGEALIRLHSRSLAEFVEREGRFILMWEKGSPTTTTYVAARALSTGLPIGVGCFPRGEFKRSTLRKASEAYSIMGGAPLKTWGVASRIVYALER”: the protein production result was “failed”.

As to “MIQMDGGDRLRVTLLDRMSTVESSRSCLTLEAILMADKNRTSPQILSPPPSRSQSNRSLVEVMQREHRHSRDKTAWKSLREKLRLKRNGSVWISSNSIPSLDTPIPNRDNVSHQLGFLLSNSGNVTEEASSVEGRIRLGAVLAEERALSAREEETPAEREVEPARMSLMELLEENEGQMSFVSVDGEAEEEVAAVTAAEISCCVCMVRSKGAAFIPCGHTFCRLCSRELWVQRGNCPLCNTTILEVLDLF”, the protein production entry is recorded as “failed”.

As to “VTSDNAAFEGTFKEMFRRHAAGVAIITVNYNGTPYGFTATSVASLSAQPPRFTFNMARSSSSWPAIANTTHIGVHMLGLDNQELADRFARTKNRFEGDHWELGPYEVPILKDVAGWLIGKIQMRLSFENNAVVVVEVVEGQVGEDGTPLLYHSGAYSQPVPLDYEI”, the protein production result was “not failed”.

Regarding “MFVHLSVELMQHLSAAALAFTVVTYVVLDGTDLGVGMLFAANRSDADRHLMAYSILPVWDGNETWLVLGGGSLLAMFPSAYAIFLNATYVPLVVMLLALICRGVALEYRDQLGTDRRRRVLDVVFMVASLLATFCQGVVAGTYLAGVAHRAGQYAGNGREWLQPFPLFCGVALVVGYLLLGACWLVWRSEGQLQQRARHQARVLGIVLGALLTLGVVWLARLTPIYAQRLGDAHISVPLGTSVLGLMVAMYLLMRSRHAFLPLFAVLGVVVATYAGVLAIVYPMVLPPDITLAQAASPPASQGVMLLAFAVLVPCTLAYSSYGFYVFRGKVKPRGHAAE”, the protein production entry is “failed”.

On to “RFEGGDHDLIPNNDAQNAAVNRALNAEDFALVHGPPGTGKTYTIATLVQAFVARGDRVLVSAFTNRAVDNALDALRQQGHEDIVRVGTETGVRADMQDLRLDRSGDPGERAAALRSAPVVAATTATCGSRILRELEFDVVLVDEASQLTEPDTLAAINRGARFVLVGDHEQ”, for which the protein production result was “failed”.

As to “MIVNEPVPDTFEDTPAKDRDPDWFKRAVFYEVLVRSFQDSNGDGIGDLKGLTAKLDYLQWLGVDCLWLPPFFKSPLRDGGYDVSDYTAVLPEFGDLADFVEFVDAAHQRGMRVIIDFVMNHTSDQHPWFQESRRNPDGPYGDYYVWADDDKQFQDARIIFVDTEASNWTYDPVRKQYYWHRFFSHQPDLNYENPVVQEEMISALKFWLDLGIDGFRLDAVPYLYQEEGTNCENLPRTHDFLKRVRKEIDAQYPDTVVLAEANQWPEDVVDYFGDYAAGGDECHMAFHFPVMPRIFMAVRRESRYPVSEILAKTPAIPSGCQWGIFLRNHDELTLEMVTDEERDYMYAEYAKDPRMRANIGIRRRLAPLLDNDRNQIELFTALLLSLPGSPILYYGDEIGMGDNIWLGDRDAVRTPMQWTPDRNAGFSSSDPGRLFLPTIMDPVHGYQVTNVEASMASPSSLLHWTRRMIEIRKQNVAFGLGTYTELPSSNPAVLAFLREHEDDLVLCVHNFSRFAQPTELDLSAFDGRHPVELFGGVRFPAVGDLPYLLTLGGHGFYWFRLRKDAA”, the protein production result is “failed”.

Regarding “MTNMKTHAREWAALDKSACFLFCSGDNDVAQQLGHAIGDLGLLTQELPEPEQLARRLADIDPQVVFLDFTGGQADPGKLLLAADLARVLARVAPAVPRVAVGYLAQPDGAIAALRAGVSDFVDPSVSPDEVHGVVQRLVSNRRIGGGSGGEHRSVLILGARPGVGASTLAVHMAGLTQERMAQAALARQGAVAGKPARSAEVMAAQLPLSDRVGVLDLGWPIGDCLLYLNISSDFDFAEAARNLSRLDGTLLNSAMAHTASGVSALALPREVEQVRALSPNDSLLLFERLRQHYGTLVTDAGGLANPEFVAKLARASHETWLVTDQSVSALVSLAGAVQELEQFHVEKSALRLVVNRYDERYGMSAAQIAERFGLELAGTLPDRTLSLMVCTNQGRLLHEQAERDIYVRAVQTLVDRLLAGSEAPRARHNSWLANWLPGVHRLTNVVESLEHHHHHH”, the protein production entry is listed as “failed”.

For the sequence “MPIIGTKELITCDNTDFIHSGNDADRSGFILSVPVFGQDGSLRGSVSAIMLTSALRKLLPGSDYVIVNSGYGFESDQHKMSTALAADSRAFTAADPNLIYSEVIPLSLNDPRSAWRLWAGFPNSRFDNNMDVQSVRQFELAGYAAVAVVTLLALACWYAIGRTMTMQVEAAETLERRVEQRTAQIQHLATHDILTGLPNRGLLADTMDEALRSLRDDEKLAVHCVDLDRFKPVNDTLGHPIGDQLLGAVAKRLKHHAGETAMVARIGGDEFVILQLLLDGNDEAGVLASRVIHALSDEFSIQGHKINIGGSIGIAVFPDDGQNSETLIRNADLALYKAKMEGRGTCRSFEPGMDARLQERRQLESELALGVKKEQFVLHYQPLHDAKTSQLTGFEALVRWNHPRLGLLAPSEFIQLAEETGAIDALGEWIMRRACADAAKWPQPVKVAVNLSPAQFKQQGLSLQVAAALAASGLLPSRLELEITESVLLANNENTLNTLYSLRDLGISIAMDDFGTGYSSLSYLRSFPFNRIKIDRSFVSLMCESSESRAIVKAVAELGTTLGMTTTAEGVETEDQYRLVKENGCTDVQGWYFGRPMPASELHTLFEQPEALTA”, the protein production entry is listed as “failed”.

As to “MNEQKNTAENTVNKQKDLETAGKTREKEDPKQLLLTASETDNYEDKLRIYDKALGLDPLYFDAWLQKGFVLDRLGRSNEALDCYNKALEIVPDHLGIKCLKGFAYSNLKDYEKAIECYDEVLKVNSEDVFSLFQKGSVLENLGRYGEAMEAYDRALEIDPADILIREKKMRLLGLIYKKGTLVDSPDSDFN”, the protein production result is “failed”.

Consider “MIILSFYKLLERVICVHSITTYWWKYYLASFFSILVIGIVISSLNINIPYFFLIQIGLVFSLWYLISPIIMILVFKMRRAPQDVTFMVEDLSKKYNVKLSKVYIINDNFLNAFAFGNIIFRGIAVTSPLYESLVQEELAAVLSHEIAHIKNYDPEVMLLTIFSINSIYAALIYYLPLVSLFFLIIYFVILLPSVFYVHRKIEKRADLTAVKVNPDITYWLESSLIKIGYLSRSIPTNMLRYVPPIQIFLAKEFIVNHIVDEKSVLSFRTHPSLKERLLYLSQYEKQKMYYI”, for which the protein production entry is recorded as “failed”.

“MPHPATMFFLFTLAVIFLSWIFDIYGLRVQLPQTGAEIRVQSLLSPEGIRWMLRNAITNFTGFAPLGMVLIAMFGIGVAQHSGFIDACVRQGVKNRKNTKRIILWVIILGLLSNIVGDAGYIILLPIAATLFYSVGLNPVAGIITAYVSVSCGYSANVVLSTMDPLIARTTQEAAIDSGVYQGNTGPLCNYYFMSVSTFVIGAIIYRITCKRLIPSLGQYEGKQIFEGYKQLSRKERRAMTMAIVMGMLYAAIILWATFSSWGILRGVNGGLIRSPFIMGILFLLSLGAAIMGMVYGFSSGRYRSDNDVIEGLAQPMKLLGGYLVIAFFAAQMFACLEYSHLDKCVAIIGANLLSSVQADPLWTLILFILFTATINLIMVSATAKWAFMAFIFVPVFARMGIEPDMTQCAFRIGDSATNAITPFMFYMPLVLTYMQQYDKQATYGSLLKYTWRYSVYILIGWTMLLFIWYLTGLPLGL”: the protein production result is on record as “failed”.

Regarding “METAITRMLGIRYPIVAAPMFLVSNAPLLQAVAEAGGIGVIPSLNFRTHQAFREFLESFPEGVPFGVNLILKGNPRLEEDLEAVVERRVPLVVTSLGDPTRVVERVKAYGGVVWCDVVGLRHGRKAVEAGADALVAVACGAGGHAGRVSPFVLGPWLREELGVPVLIAGGIATGRQVLAALALGDGVYIGTRFIATLESGAPLEYKEALLRAQPEDIEYTPEVTGVPANFLRESLERFRQGGGKAWKEVYSAGHGVAFIREIPSAKEVVARLVEEYRAAKAGLP”, the protein production entry was “failed”.

For “SEAEGNQVYFAVYTFKARNPNELSVSANQKLKILEFKDVTGNTEWWLAEVNGKKGYVPSNYIRKTE”, the protein production result was “not failed”.

As to “MEIMKKQNSQINEINKDEIFVVVPAFNEEKMIGETLKNLKKEGYKNIVVVDDGSMDKTSEIAKKEGVIVCRHILNRGLGGALGTGIKCALLYKPKIIITFDADGQHHPKDVEKVVKPVLFEGYDMAIGSRMMDKNELKNMPLVKRIGNFGLNFITYLMGGYFVTDSQSGLRAFSYEAAKKIIGDLKSDRYEVSSEFIILAKKHGLKLKEVPIKTIYTEYSMSRGTNVITGFKILFKLIMQKIF”, the protein production result is reported as “failed”.

The record behind these values is a protein production outcome set (Wang et al. 2014).
